The source of these data is paper PMC9786881 (Viruses, 2022).

To fix the notation:
B1: RABV phosphoprotein residues 1-68 with C-terminal His6 (P68−His6) (peptide)
chain: MSKIFVNPSAIRAGLADLEMAEETVDLINRNIEDNQAHLQGEPIEVDNLPEDMKRLHLDDEKSSNLGE
B2: full-length RABV phosphoprotein (PFL) (natural protein)
chain: MSKIFVNPSAIRAGLADLEMAEETVDLINRNIEDNQAHLQGEPIEVDNLPEDMKRLHLDDEKSSNLGEMVRVGEGKYREDFQMDEGEDPNLLFQSYLDNVGVQIVRQMRSGERFLKIWSQTVEEIVSYVTVNFPNPPRRSSEDKSTQTTGRELKKETTSAFSQRESQPSKARMVAQVAPGPPALEWSATNEEDDLSVEAEIAHQIAESFSKKYKFPSRSSGIFLYNFEQLKMNLDDIVKEAKNVPGVTRLAHDGSKIPLRCVLGWVALANSKKFQLLVEADKLSKIMQDDLNRYTSC
B3: RABV nucleoprotein lacking its N-terminal arm (N[change], residues 24-450) (domain or fragment)
chain: DQYEYKYPAIKDLKKPCITLGKAPDLNKAYKSVLSGMNAAKLDPDDVCSYLAAAMQFFEGTCPEDWTSYGILIARKGDRITPNSLVEIKRTDVDGNWALTGGMELTRDPTVSEHASLVGLLLSLYRLSKISGQNTGNYKTNIADRIEQIFETAPFVKIVEHHTLMTTHKMCANWSTIPNFRFLAGTYDMFFSRIEHLYSAIRVGTVVTAYEDCSGLVSFTGFIKQINLTAREAILYFFHKNFEEEIRRMFEPGQETAVPHSYFIHFRSLGLSGKSPYSSNAVGHVFNLIHFVGCYMGQVRSLNATVIAACAPHEMSVLGGYLGEEFFGKGTFERRFFRDEKELQEYEAAELTKTDVALADDGTVNSDDEDYFSGETRSPEAVYTRIMMNGGRLKRSHIRRYVSVSSNHQARPNSFAEFLNKTYSNDS

“And” between values parts separate entries of the source, which are not always exact repeats. Equal entries are not always repeated.

Data set [1] deals with B3. In words: fluorescence polarisation. To be noted: both partners purified. (Polarisation of emitted light reports the rotation of a fluorescent probe.)
Data set [2] concerns the target B3. In words: fluorescence polarisation. To be noted: both partners purified. This is another data set of the same source.
For data set [3], the target named is B3. The experiment in a line: SEC-MALLS. To be noted: both partners purified.
The data set “SEC-SAXS” deals with the molecule itself. The experiment in a line: SEC-SAXS.
Data set [4] has as its target B2. In words: SEC-SAXS. To be noted: both partners purified. A general note: Size exclusion chromatography separates by hydrodynamic size, large species first.

On to B1, for which the IC50 (usually the concentration needed to halve the response being measured) in data set [1] was approximately 1000 nM. Also, the Kd (in general, a measure of binding affinity in units of concentration) in data set [2] was 8.2 ± 0.6 nM; in data set [3], less than 1000 nM.

On to B2, for which, in the data set “SEC-SAXS”, the stoichiometry N – broadly, a count of units in the complex or per binding partner – stood at 2.

Regarding B3, the “stoichiometry N” value in data set [4] is 2 N molecules per P dimer and 1 N molecules per P dimer.
